Measured values as given in the supplement of paper PMC10126150.
± gives the standard deviation of the averaged measurements.

System: ATP
Assay: switch fluorescence ratio, 500 uM ATP over buffer (Cy3 cluster intensity, sum of 5 cycles each) (fold (ratio)); higher = stronger signal-on switching upon ATP binding; sequences stand for … in TCGTCGGCAGCGTCAGATGTGTATAAGAGACAGTTTTTTTTTTTTTTTTTTTTTTTTT…TC
Conditions: aptamer strand: ATP DNA aptamer (quencher-CACCTGGGGGAGTATTGCGGAGGAAGG + anchor), 100 nM annealed; ATP concentration: 500 uM
Method in brief: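 Imaging in selection buffer was followed by imaging after 15 min with 500 uM ATP at 22 °C, for Cy3-labelled switching-strand clusters annealed to 100 nM quencher-labelled ATP aptamer on a modified Illumina MiSeq flow-cell. Five of these buffer/ATP cycles ran, separated by NaOH stripping and re-annealing. The fluorescence ratio per cluster is summed target-cycle over summed buffer-cycle Cy3 intensity, averaged per switch-domain sequence; clusters outside 100-1000 RFU were removed.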
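Also: ATP exposure 15 min at 22 °C before imaging.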

| Sequence | switch fluorescence ratio |
| --- | --- |
| GGTTCAGCGG | 0.959 ± 0.035 |
| GGTTCAGCGT | 0.984 ± 0.015 |
| GGTTCAGGGA | 0.977 ± 0.0099 |
| GGTTCAGGTG | 3.38 ± 0.34 |
| GGTTCCAAGC | 1.06 ± 0.04 |
| GGTTCGACTG | 0.951 ± 0.046 |
| GGTTCGGGTG | 1.075 ± 0.0041 |
| GGTTCGTATT | 0.975 ± 0.038 |
| GGTTCTATTT | 1.03 ± 0.016 |
| GGTTCTTCGG | 0.9938 ± 0.0066 |
| GGTTCTTTAG | 1.015 ± 0.0033 |
| GGTTGAAAAA | 0.985 ± 0.053 |
| GGTTGAAAAG | 0.979 ± 0.015 |
| GGTTGAAGAG | 0.955 ± 0.011 |
| GGTTGACCCC | 0.978 ± 0.027 |
| GGTTGACGCA | 1.01 ± 0.03 |
| GGTTGACTTG | 1.01 ± 0.059 |
| GGTTGAGGGC | 1 ± 0.02 |
| GGTTGATACG | 0.959 ± 0.026 |
| GGTTGCGGTG | 0.94 ± 0.083 |
| GGTTGGAAAT | 0.99 ± 0.06 |
| GGTTGGACAG | 0.988 ± 0.011 |

| Sequence | switch fluorescence ratio |
| --- | --- |
| GGTTGGAGTG | 0.963 ± 0.017 |
| GGTTGGAGTT | 0.984 ± 0.0049 |
| GGTTGGATGG | 0.9995 ± 0.0007 |
| GGTTGGGGAC | 0.971 ± 0.022 |
| GGTTGGTCTA | 0.979 ± 0.028 |
| GGTTGGTTCT | 1.02 ± 0.078 |
| GGTTGTCATG | 0.967 ± 0.032 |
| GGTTGTGAGT | 0.993 ± 0.02 |
| GGTTGTGGGG | 0.998 ± 0.035 |
| GGTTGTTTCG | 0.969 ± 0.038 |
| GGTTTAAGGT | 1.01 ± 0.02 |
| GGTTTAATTC | 1.01 ± 0.012 |
| GGTTTACCGG | 0.987 ± 0.039 |
| GGTTTAGGGC | 0.992 ± 0.066 |
| GGTTTAGTGG | 1 ± 0.031 |
| GGTTTATAAA | 0.971 ± 0.051 |
| GGTTTATGGG | 0.975 ± 0.037 |
| GGTTTATTTG | 1.01 ± 0.016 |
| GGTTTCGATA | 0.96836 ± 1.5e-05 |
| GGTTTCGTCC | 1.02 ± 0.0023 |
| GGTTTCTACA | 1 ± 0.034 |
| GGTTTCTTAG | 0.98 ± 0.018 |

| Sequence | switch fluorescence ratio |
| --- | --- |
| GGTTTGAAAT | 1.04 ± 0.051 |
| GGTTTGAGGA | 0.971 ± 0.012 |
| GGTTTGCGTG | 0.988 ± 0.0043 |
| GGTTTGCTGA | 1.01 ± 0.043 |
| GGTTTGGACG | 0.981 ± 0.037 |
| GGTTTGGGCA | 1.02 ± 0.013 |
| GGTTTGGTAT | 0.99 ± 0.021 |
| GGTTTGGTCA | 1 ± 0.0055 |
| GGTTTGGTTA | 1 ± 0.027 |
| GGTTTGTGGG | 0.968 ± 0.013 |
| GGTTTTAGAT | 0.9977 ± 0.0072 |
| GGTTTTATAC | 1.04 ± 0.02 |
| GGTTTTCAGT | 1.03 ± 0.045 |
| GGTTTTCCAG | 0.946 ± 0.063 |
| GGTTTTGCCA | 0.995 ± 0.034 |
| GGTTTTTTGT | 0.992 ± 0.017 |
| GTAAAAATGG | 1.05 ± 0.12 |
| GTAAAAGAAG | 0.964 ± 0.02 |
| GTAAAAGGCG | 1 ± 0.024 |
| GTAAAAGTTT | 0.979 ± 0.01 |
| GTAAAATGTT | 1.03 ± 0.035 |
| GTAAAGAGTT | 0.992 ± 0.011 |

| Sequence | switch fluorescence ratio |
| --- | --- |
| GTAAAGGGGA | 1.03 ± 0.044 |
| GTAAGACTAA | 0.997 ± 0.011 |
| GTAAGTAAGA | 1.03 ± 0.017 |
| GTAAGTGAGC | 1.034 ± 0.0026 |
| GTAAGTTCTG | 1 ± 0.011 |
| GTAATAGGGC | 0.983 ± 0.054 |
| GTAATAGGTC | 1.013 ± 0.0088 |
| GTAATAGTAT | 1.006 ± 0.0061 |
| GTAATCATTT | 0.9667 ± 0.0093 |
| GTAATCGGCA | 1.02 ± 0.022 |
| GTAATCTCTG | 1.01 ± 0.028 |
| GTAATCTTTA | 0.982 ± 0.029 |
| GTAATGATGG | 0.994 ± 0.036 |
| GTAATGGGGT | 0.966 ± 0.029 |
| GTAATTTAGG | 0.996 ± 0.042 |
| GTAATTTTGG | 0.983 ± 0.037 |
| GTAATTTTTT | 1.02 ± 0.031 |
| GTACACTCAT | 1.04 ± 0.031 |
| GTACATATAA | 1.03 ± 0.011 |
